Earlier results in patent publication EP1140148B1, “SHELF-STABLE SOLUTION FORMULATION OF GLUCAGON-LIKE PEPTIDE-1” (ELI LILLY AND COMPANY, priority 1998, dated 2005).

Conditions: stored at 4° C; as early as; Mojsov 1992

Question: For “GLP-1(7-37): Glucagon-like peptide-1 (7-37), insulinotropic peptide hormone”, which “by-products found after sample preparation” value is on record?
Answer: Its value is “eleven”.
